Molecular target: wild type human PKR, full length (aa 1-551) (human) (UniProt P19525)
Assay: cell-based or functional assay

wild type human PKR, full length (aa 1-551) (human), sequence (P19525 whole entry, the tested form may be a part): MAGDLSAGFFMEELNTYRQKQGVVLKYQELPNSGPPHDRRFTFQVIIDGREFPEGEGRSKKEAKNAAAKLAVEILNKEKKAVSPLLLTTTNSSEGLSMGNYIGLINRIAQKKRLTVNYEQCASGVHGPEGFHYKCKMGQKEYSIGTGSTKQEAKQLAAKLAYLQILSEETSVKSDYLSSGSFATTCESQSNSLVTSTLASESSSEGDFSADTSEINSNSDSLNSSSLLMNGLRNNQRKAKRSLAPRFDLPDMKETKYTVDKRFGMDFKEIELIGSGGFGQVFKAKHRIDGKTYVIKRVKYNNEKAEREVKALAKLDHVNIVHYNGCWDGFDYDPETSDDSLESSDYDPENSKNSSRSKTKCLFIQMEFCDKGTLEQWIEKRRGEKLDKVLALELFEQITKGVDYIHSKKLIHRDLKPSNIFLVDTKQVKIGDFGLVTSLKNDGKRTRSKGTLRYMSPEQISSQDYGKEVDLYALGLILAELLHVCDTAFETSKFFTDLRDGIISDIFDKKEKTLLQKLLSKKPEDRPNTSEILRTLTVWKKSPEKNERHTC

Substance “NS5A 1b-2 (untagged, expressed from pYES-NS5A 1b-2)” has a fold decrease in plating efficiency of yeast RY1-1 on galactose medium of 10 to 100 fold.

Source: patent US7148006
